# Reference: IntAct's records for PubMed 10861283
# B1: Merlin (Homo sapiens), P35240-3 (parent)
# chain: MAGAIASRMSFSSLKRKQPKTFTVRIVTMDAEMEFNCEMKWKGKDLFDLVCRTLGLRETWFFGLQYTIKDTVAWLKMDKKVLDHDVSKEEPVTFHFLAKFYPENAEEELVQEITQHLFFLQVKKQILDEKIYCPPEASVLLASYAVQAKYGDYDPSVHKRGFLAQEELLPKRVINLYQMTPEMWEERITAWYAEHRGRARDEAEMEYLKIAQDLEMYGVNYFAIRNKKGTELLLGVDALGLHIYDPENRLTPKISFPWNEIRNISYSDKEFTIKPLDKKIDVFKFNSSKLRVNKLILQLCIGNHDLFMRRRKADSLEVQQMKAQAREEKARKQMERQRLAREKQMREEAERTRDELERRLLQMKEEATMANEALMRSEETADLLAEKAQITEEEAKLLAQKAAEAEQEMQRIKATAIRTEEEKRLMEQKVLEAEVLALKMAEESERRAKEADQLKQDLQEAREAERRAKQKLLEIATKPTYPPMNPIPAPLPPDIPSFNLIGDSLSFDFKDTDMKRLSMEIEKEKVEYMEKSKHLQEQLNELKTEIEALKLKERETALDILHNENSDRGGSSKHNTIKKPQAQGRRPICI
# How the values were obtained:
# HGS, O14964-1 = variants of: B1; conditions: with HGS
# HGS, O14964-2 = variants of: B1; conditions: with HGS
# Chain of HGS, O14964-2 (O14964 other isoform, or with tags, fused parts or gaps): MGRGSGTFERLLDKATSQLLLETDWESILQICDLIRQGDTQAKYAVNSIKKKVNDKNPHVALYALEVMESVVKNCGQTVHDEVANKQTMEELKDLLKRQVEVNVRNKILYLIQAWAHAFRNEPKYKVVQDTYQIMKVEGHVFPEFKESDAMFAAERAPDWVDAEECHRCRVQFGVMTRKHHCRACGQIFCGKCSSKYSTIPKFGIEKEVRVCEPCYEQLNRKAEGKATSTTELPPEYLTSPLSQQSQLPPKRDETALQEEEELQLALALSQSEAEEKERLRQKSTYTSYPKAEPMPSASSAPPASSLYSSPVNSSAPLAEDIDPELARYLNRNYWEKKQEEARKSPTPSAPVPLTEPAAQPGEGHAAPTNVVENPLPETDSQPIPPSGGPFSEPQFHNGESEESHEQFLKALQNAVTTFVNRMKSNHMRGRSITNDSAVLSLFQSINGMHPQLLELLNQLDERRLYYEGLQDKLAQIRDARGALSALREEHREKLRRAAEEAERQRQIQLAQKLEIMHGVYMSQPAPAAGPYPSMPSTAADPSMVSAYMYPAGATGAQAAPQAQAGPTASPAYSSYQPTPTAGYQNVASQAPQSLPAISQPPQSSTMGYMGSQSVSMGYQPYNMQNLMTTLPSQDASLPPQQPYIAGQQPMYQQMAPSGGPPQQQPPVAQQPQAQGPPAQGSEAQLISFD
# Chain of HGS, O14964-1 (O14964 whole entry): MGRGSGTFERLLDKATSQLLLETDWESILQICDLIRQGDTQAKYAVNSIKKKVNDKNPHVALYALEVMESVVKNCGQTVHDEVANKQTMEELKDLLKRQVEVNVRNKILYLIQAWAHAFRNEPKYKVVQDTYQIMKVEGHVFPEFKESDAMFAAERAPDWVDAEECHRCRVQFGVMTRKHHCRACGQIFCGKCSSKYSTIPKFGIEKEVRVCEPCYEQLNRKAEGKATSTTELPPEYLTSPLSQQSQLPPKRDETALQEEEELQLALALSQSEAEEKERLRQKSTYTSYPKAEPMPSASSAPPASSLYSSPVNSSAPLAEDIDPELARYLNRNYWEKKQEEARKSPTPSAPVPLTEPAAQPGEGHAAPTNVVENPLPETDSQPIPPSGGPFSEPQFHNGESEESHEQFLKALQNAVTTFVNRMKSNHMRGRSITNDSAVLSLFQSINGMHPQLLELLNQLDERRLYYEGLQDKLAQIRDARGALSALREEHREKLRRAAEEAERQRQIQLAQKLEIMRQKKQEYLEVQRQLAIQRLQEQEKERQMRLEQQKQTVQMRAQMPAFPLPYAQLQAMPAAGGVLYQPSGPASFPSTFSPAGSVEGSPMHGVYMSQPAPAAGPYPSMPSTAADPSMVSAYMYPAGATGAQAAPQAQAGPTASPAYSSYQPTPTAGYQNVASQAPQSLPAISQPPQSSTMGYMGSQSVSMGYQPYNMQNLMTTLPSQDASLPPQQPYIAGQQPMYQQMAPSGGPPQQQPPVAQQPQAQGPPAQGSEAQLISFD
Variant,"effect of a mutation on the interaction (HGS, O14964-1)","effect of a mutation on the interaction (HGS, O14964-2)"
L46R,decreasing interaction strength,decreasing interaction strength
L360P,decreasing interaction strength,decreasing interaction strength

# The next lines start with the values.
"effect of a mutation on the interaction (HGS, O14964-1)","effect of a mutation on the interaction (HGS, O14964-2)",Variant
decreasing interaction strength,decreasing interaction strength,Q538P
decreasing interaction strength,decreasing interaction strength,L535P
